Experimental data as given in the RNAGym collection of RNA variant scans (doi:10.1021/acssynbio.7b00057).

B1: Pistol ribozyme (parent)
chain: GGGUCGUUGUUCCAUAAUCGCGUGGAUAUGGCACGCAAGUUUCUACCGGGCACCGUAAAUGUCCGACUGGAGCCGUUCGGGCGGCUAUAAACAGACCUCAGGCCCGAAGCGUGGCGGCACCUGCCGCCGGUGGUAAAAAAGAUCGGAAGAGCACACGUCU

Variants of: B1
Test: aptazyme ON/OFF ratio, guanine; higher = stronger switching; co-transcriptional cleavage with and without guanine

Row | Variant | aptazyme ON/OFF ratio
1 | U7C U8C G9C U10C C12G C13U | 1.04
2 | U7C U8C G9C U11G C12G C13A | 1.1
3 | U7C U8C G9C U11G C12G C13G | 1.11
4 | U7C U8C G9C U11G C12G C13U | 1.1
5 | U7C U8C G9C U10G U11C C12U C13A | 1.07
6 | U7C U8C G9C U10G U11C C12U C13U | 1.17
7 | U7C U8C G9C U10G U11C C12U C13G | 1.14
8 | U7C U8C G9U U10G C13U | 1.39
9 | U7C U8C G9U U10G C13A | 1.21
10 | U7C U8C G9U U10G C13G | 1.12
11 | U7C U8C G9C U10G C12U | 1.2
12 | U7C U8C G9C U10G C12G | 1.1
13 | U7C U8C G9C U10G C12A | 1.1
14 | U7C U8C G9C U10G U11G C12U C13A | 1.08
15 | U7C U8C G9C U10G U11G C12U C13G | 1.09
16 | U7C U8C G9C U10G U11G C12U C13U | 1.06
17 | U7C U8C G9C U10G | 1.61
18 | U7C U8C G9C U10C U11C C12G | 1.13
19 | U7C U8C G9C U10C U11C C12A | 1.04
20 | U7C U8C G9C U10C U11C C12U | 1.06
21 | U7C U8C G9U U10A U11A C12G C13G | 1.19
22 | U7C U8C G9U U10A U11A C12G C13U | 1.11
23 | U7C U8C G9U U10A U11A C12G C13A | 1.03
24 | U7C U8C G9C U10C C13U | 2.85

Row | Variant | aptazyme ON/OFF ratio
25 | U7C U8C G9C U10C C13A | 1.04
26 | U7C U8C G9C U10C C13G | 1.12
27 | U7C U8C G9C U10G C13U | 1.17
28 | U7C U8C G9C U10G C13A | 1.13
29 | U7C U8C G9C U10G C13G | 1.1
30 | U7C U8C G9U U10C U11C C13A | 1.02
31 | U7C U8C G9U U10C U11C C13G | 1.1
32 | U7C U8C G9U U10C U11C C13U | 1.04
33 | U7C U8C G9C U11C C13U | 1.24
34 | U7C U8C G9C U11C C13A | 1.28
35 | U7C U8C G9C U11C C13G | 1.04
36 | U7C U8C G9C U10G U11C C12U | 1.19
37 | U7C U8C G9C U10G U11C C12A | 1.09
38 | U7C U8C G9C U10G U11C C12G | 1.14
39 | U7C U8C G9C U10C U11A C12G C13U | 1.05
40 | U7C U8C G9C U10C U11A C12G C13A | 1.11
41 | U7C U8C G9C U10C U11A C12G C13G | 1.13
42 | U7C U8C G9C U10G U11A C12U | 1.15
43 | U7C U8C G9C U10G U11A C12G | 1.11
44 | U7C U8C G9C U10G U11A C12A | 1.16
45 | U7C U8C G9U U10A U11C C12U | 1.19
46 | U7C U8C G9U U10A U11C C12G | 1.36
47 | U7C U8C G9U U10A U11C C12A | 1.19
48 | U7C U8C G9U U10C C12U C13A | 1.12

Row | Variant | aptazyme ON/OFF ratio
49 | U7C U8C G9U U10C C12U C13G | 1.1
50 | U7C U8C G9U U10C C12U C13U | 1.28
51 | U7C U8C G9C U10G U11G C12A C13U | 1.09
52 | U7C U8C G9C U10G U11G C12A C13G | 1.07
53 | U7C U8C G9C U10G U11G C12A C13A | 1.08
54 | U7C U8C G9U U10C U11C C12A C13U | 1.16
55 | U7C U8C G9U U10C U11C C12A C13A | 1.12
56 | U7C U8C G9U U10C U11C C12A C13G | 1.18
57 | U7C U8C G9U U10C U11A C12A C13A | 1.17
58 | U7C U8C G9U U10C U11A C12A C13U | 1.09
59 | U7C U8C G9U U10C U11A C12A C13G | 1.17
60 | U7C U8C G9U U10A C12U C13A | 1.07
61 | U7C U8C G9U U10A C12U C13U | 1.19
62 | U7C U8C G9U U10A C12U C13G | 1.14
63 | U7C U8C G9C U11C C12U | 1.32
64 | U7C U8C G9C U11C C12G | 1.24
65 | U7C U8C G9C U11C C12A | 1.22
66 | U7C U8C G9C U10G U11G C12U | 1.11
67 | U7C U8C G9C U10G U11G C12A | 1.11
68 | U7C U8C G9C U10G U11G C12G | 1.14
69 | U7C U8C G9C U10C U11A C12U C13A | 1.08
70 | U7C U8C G9C U10C U11A C12U C13U | 1.1
71 | U7C U8C G9C U10C U11A C12U C13G | 1.11
72 | U7C U8C G9C U11G C12U | 1.12

Row | Variant | aptazyme ON/OFF ratio
73 | U7C U8C G9C U11G C12A | 1.22
74 | U7C U8C G9C U11G C12G | 1.11
75 | U7C U8C G9C U10C U11A C12G | 1.11
76 | U7C U8C G9C U10C U11A C12A | 1.12
77 | U7C U8C G9C U10C U11A C12U | 1.02
78 | U7C U8C G9U C12G C13A | 1.21
79 | U7C U8C G9U C12G C13G | 1.12
80 | U7C U8C G9U C12G C13U | 1.17
81 | U7C U8C G9C U10C U11A C12A C13G | 1.06
82 | U7C U8C G9C U10C U11A C12A C13U | 1.1
83 | U7C U8C G9C U10C U11A C12A C13A | 1.07
84 | U7C U8C G9C U10G C12G C13U | 1.1
85 | U7C U8C G9C U10G C12G C13G | 1.09
86 | U7C U8C G9C U10G C12G C13A | 1.05
87 | U7C U8C G9U U10A U11C C12A C13U | 1.18
88 | U7C U8C G9U U10A U11C C12A C13G | 1.15
89 | U7C U8C G9U U10A U11C C12A C13A | 1.17
90 | U7C U8C G9C U10C C12G | 1.14
91 | U7C U8C G9C U10C C12U | 1.94
92 | U7C U8C G9C U11C C12A C13A | 1.16
93 | U7C U8C G9C U11C C12A C13G | 1.04
94 | U7C U8C G9C U11C C12A C13U | 1.18
95 | U7C U8C G9U C13G | 1.03
96 | U7C U8C G9U C13A | 1.02

Row | Variant | aptazyme ON/OFF ratio
97 | U7C U8C G9U C13U | 1.23
98 | U7C U8C G9U U10C U11G C13A | 1.07
99 | U7C U8C G9U U10C U11G C13U | 1.29
100 | U7C U8C G9U U10C U11G C13G | 1.3
101 | U7C U8C G9C U11A C12A C13A | 1.1
102 | U7C U8C G9C U11A C12A C13U | 1.13
103 | U7C U8C G9C U11A C12A C13G | 1.14
104 | U7C U8C G9C U11A | 1.71
105 | U7C U8C G9C U11G | 1.24
106 | U7C U8C G9C U11C | 1.43
107 | U7C U8C G9U U10C C12A C13U | 1.07
108 | U7C U8C G9U U10C C12A C13A | 1.17
109 | U7C U8C G9U U10C C12A C13G | 1.09
110 | U7C U8C G9U U10C U11A C12G | 1.34
111 | U7C U8C G9U U10C U11A C12A | 1.26
112 | U7C U8C G9U U10C U11A C12U | 1.26
113 | U7C U8C G9C U10C U11C | 1.14
114 | U7C U8C G9C U10C U11A | 1.4
115 | U7C U8C G9C U10C U11G | 1.3
116 | U7C U8C G9C U11G C12A C13G | 1.1
117 | U7C U8C G9C U11G C12A C13A | 1.13
118 | U7C U8C G9C U11G C12A C13U | 1.09
119 | U7C U8C G9C U10G U11C | 1.5
120 | U7C U8C G9C U10G U11G | 1.09

Row | Variant | aptazyme ON/OFF ratio
121 | U7C U8C G9C U10G U11A | 1.3
122 | U7C U8C G9C U11C C12G C13A | 1.09
123 | U7C U8C G9C U11C C12G C13G | 1.2
124 | U7C U8C G9C U11C C12G C13U | 1.01
125 | U7C U8C G9U U10A U11G C12U | 1.11
126 | U7C U8C G9U U10A U11G C12A | 1.2
127 | U7C U8C G9U U10A U11G C12G | 1.15
128 | U7C U8C G9C U10G U11G C12G C13G | 1.09
129 | U7C U8C G9C U10G U11G C12G C13U | 1.05
130 | U7C U8C G9C U10G U11G C12G C13A | 1.11
131 | U7C U8C G9C U11A C12U | 1.14
132 | U7C U8C G9C U11A C12A | 1.23
133 | U7C U8C G9C U11A C12G | 1.14
134 | U7C U8C G9C U10C U11G C12U C13G | 1.1
135 | U7C U8C G9C U10C U11G C12U C13U | 1.1
136 | U7C U8C G9C U10C U11G C12U C13A | 1.09
137 | U7C U8C G9C U11A C12U C13U | 1.11
138 | U7C U8C G9C U11A C12U C13A | 1.06
139 | U7C U8C G9C U11A C12U C13G | 1.16
140 | U7C U8C G9U C12G | 1.29
141 | U7C U8C G9U C12A | 1.36
142 | U7C U8C G9U C12U | 1.61
143 | U7C U8C G9C U10C U11C C12G C13A | 1.28
144 | U7C U8C G9C U10C U11C C12G C13G | 1.19

Row | Variant | aptazyme ON/OFF ratio
145 | U7C U8C G9C U10C U11C C12G C13U | 1.1
146 | U7C U8C G9U U10A U11G C12G C13G | 1.08
147 | U7C U8C G9U U10A U11G C12G C13A | 1.19
148 | U7C U8C G9U U10A U11G C12G C13U | 1.07
149 | U7C U8C G9U U10A U11A C12U C13U | 1.18
150 | U7C U8C G9U U10A U11A C12U C13A | 1.09
151 | U7C U8C G9U U10A U11A C12U C13G | 1.14
152 | U7C U8C G9U U10A U11A C12A | 1.27
153 | U7C U8C G9U U10A U11A C12G | 1.2
154 | U7C U8C G9U U10A U11A C12U | 1.28
155 | U7C U8C G9U | 2.34
156 | U7C U8C G9C U10C U11G C12G C13A | 1.08
157 | U7C U8C G9C U10C U11G C12G C13U | 1.11
158 | U7C U8C G9C U10C U11G C12G C13G | 1.12
159 | U7C U8C G9U U10C U11G C12A C13G | 1.11
160 | U7C U8C G9U U10C U11G C12A C13U | 1.12
161 | U7C U8C G9U U10C U11G C12A C13A | 1.11
162 | U7C U8C G9U U10G C12U C13A | 1.1
163 | U7C U8C G9U U10G C12U C13U | 1.21
164 | U7C U8C G9U U10G C12U C13G | 1.12
165 | U7C U8C G9C U11G C12U C13G | 1.07
166 | U7C U8C G9C U11G C12U C13A | 1.06
167 | U7C U8C G9C U11G C12U C13U | 1.1
